Measured values published in patent publication US11325945B2, “Peptide based PCSK9 vaccine” (CADILA HEALTHCARE LIMITED, priority 2017, dated 2022).
Non-standard residues stand in square brackets, D forms with d. Primed or numbered codes have the meaning given here. No end group written: not given here. 2‑aminophenyl pentanoic acid = 2-Aminophenyl pentanoic acid; Hyp = O=C(O)[C@@H]1C[C@@H](O)CN1; NMeI = CC[C@H](C)[C@H](NC)C(=O)O; hArg = N=C(N)NCCCC[C@H](N)C(=O)O; Cit = NC(=O)NCCC[C@H](N)C(=O)O; Nle = CCCC[C@H](N)C(=O)O; Aib = CC(C)(N)C(=O)O

Legend:
recombinant human PCSK9 = biological target: T1, recombinant human PCSK9 (Homo sapiens, UniProt Q8NBP7); test: Affinity of new peptides for recombinant human PCSK9 by surface plasmon resonance (Biacore T200); assay type: binding; conditions: SPR, 25° C.
T1 construct: His; purchased BPS Biosciences
Method: (§1) Affinity parameters of new peptides for recombinant human PCSK9 were analyzed by surface plasmon resonance (SPR), using a Biacore instrument (Biacore T200, GE Healthcare). SPR experiments were performed at 25° C. with a BIACORE T200 apparatus (GE Healthcare, Uppsala, Sweden).
(§2) Purified recombinant human PCSK9 (His-tagged, BPS Biosciences) diluted to 100-150 μg/mL in 10 mM acetate buffer, pH 5.0, was immobilized on one of the four flow cells of a Series S Sensor Chip CMS to a level of approximately 6000 to 8000 RU (resonance units) by the use of amine-coupling chemistry. The surface was blocked with 1M ethanolamine, pH 8.5. Whereas one flow cell was immobilized as blank for reference subtraction (no PCSK9). 10 mM Hepes (pH 7.4) with 150 mM NaCl was used as running buffer. The rest two flow cells were saved for future use.
(§3) 100× Stock solutions of NCE (new peptides) were made in 100% DMSO and were diluted to range of concentrations in 10 mM Hepes, pH7.4+150 mM NaCl so that the final conc of DMSO is kept at 1%. Binding/Kinetics studies were conducted by passing various concentrations of NCEs over blank as well as ligand (protein) immobilized surface. Each cycle consisted of a 60 s or 120 s analyte (diluted small molecule drug) injection at flow rate with between 5 to 30 μL/min (the association phase), followed by a dissociation phase with between 60 to 180 s. If required, regeneration was done using a 30 s (15 μL) injection of 10 mM glycine/HCl (pH 1.5) and 20 s or 30 s (10 or 15 μL) injection of 10 mM NaOH. The data were analyzed using the Biacore T200 Evaluation software. All the curves were reference-subtracted. Baselines were adjusted to zero for all curves and data were presented as binding RU (Average of 5 s window) 5 s before end of sample injection.
For KD (equilibrium dissociation constant) determinations analyte curves were subtracted from buffer blank and modeled assuming a simple 1:1 interaction to generate the kinetic data.

PCSK9 = test: Immunogenicity study in BALB/c mice: anti-PCSK-9 ELISA antibody titers in serum; assay type: in vivo, mouse; conditions: peptide formulations, in words
Method: (§4) Female BALB/c mice of 12-15 weeks of age issued from animal house and kept for […]. Mice had access to food and water ad libitum and were kept under a 12 hrs light/dark cycle. On Day-0 (pre-treatment) animals bled and serum was harvested for total cholesterol measurement. Animals were randomized and grouped to various treatments based on their total cholesterol and body weights. On next day of Day-0 (pre-treatment) blood collection animals were immunised with 0.3 ml of vaccine formulations as mentioned Table No. 1 by subcutaneous or intramuscular route. Next booster injection was given on 2 weeks and 4 weeks after first injection and animals were bled for immunogenicity measurement on two weeks thereafter till week 7 and then every four week till 32 week, detailed schedule of blood collection was Day-0 (pre-treatment) from there 5th, 7th, 20th, 24th, 28th, 32nd, 45th and 57th week after first vaccine administration. Serum was separated and serum total cholesterol was measured and immunogenicity or antibody confirmation was done using ELISA for PCSK9 antibody titer, binding of serum antibodies with human PCSK9 using Surface plasmon resonance (SPR) assay and LDLR-PCSK9 interaction inhibition assay.
At specific intervals of time (15 days post immunization with each booster), serum samples were collected from all groups of mice. 96-well ELISA plates (#442402) were pre-coated with PCSK-9 protein 50 ng/well and plate incubated overnight at 2-8° C. Next day, wells were washed to remove unbound protein and blocked in 2% skimmed milk-PB ST for 2 hours, and washed with PBST. Sera samples were diluted 1:20 with 0.2% skimmed milk made in PBST. Appropriate volume of samples and standards was added to each well, and incubated for 1 hour at 37° C. Anti-mouse IgG secondary HRP-labeled antibody was added to each well and incubated at 37° C. for 1 hour, then washed. […] Plates were read at 492 nm on a Spectramax microplate reader. […] By using the negative control value, cut-off value was calculated and the corrected OD's above the cut off value were treated as […]. […]

LDLR-PCSK9 interaction = LDLR-PCSK9 interaction inhibition assay with serum from vaccine treated animals (PCSK9[Biotinylated]-LDLR Binding Assay Kit); assay type: biochemical; conditions: peptide formulations, week 5, in words
Method: as §4
Inhibition of LDLR-PCSK9 interaction by antibody (Ab) in serum from vaccine treated animal were assayed using BPS Bioscience in-vitro PCSK9[Biotinylated]-LDLR Binding Assay Kit (BPS Bioscience, San Diego, Calif., USA) with minor modifications. First, LDLR ectodomain is coated on a 96-well plate and plate was incubated overnight. Next, PCSK9-biotin was diluted in 1×PCSK9 assay buffer to obtain 2.5 ng/μl (50 ng/20 μl) concentration and this master mix, test inhibitor (serum samples from animal studies), inhibitor buffer was added to LDL-R coated plate and incubated at room temperature for 2 hours. Finally, the plate is treated with streptavidin-HRP followed by addition of an HRP substrate to produce chemiluminescence, which was then measured using a chemiluminescence reader according to the manufacturer's instructions. […]

human PCSK9 = test: Serum antibody detection by affinity determination against human PCSK9 using SPR assay; assay type: binding
Method: as §1, §2
as §3, with “Baselines were adjusted to zero for all curves and data were presented as binding RU (Average of 5 s window) 5 s before end of sample injection.” left out
Female BALB/c mice of 12-15 weeks of age issued from animal house and kept for 2-3 acclimatization. […] Serum was separated and serum total cholesterol was measured and immunogenicity or antibody confirmation was done using ELISA for PCSK9 antibody titer, binding of serum antibodies with human PCSK9 using Surface plasmon resonance (SPR) assay and LDLR-PCSK9 interaction inhibition assay.

T1 sequence (Q8NBP7 153-692): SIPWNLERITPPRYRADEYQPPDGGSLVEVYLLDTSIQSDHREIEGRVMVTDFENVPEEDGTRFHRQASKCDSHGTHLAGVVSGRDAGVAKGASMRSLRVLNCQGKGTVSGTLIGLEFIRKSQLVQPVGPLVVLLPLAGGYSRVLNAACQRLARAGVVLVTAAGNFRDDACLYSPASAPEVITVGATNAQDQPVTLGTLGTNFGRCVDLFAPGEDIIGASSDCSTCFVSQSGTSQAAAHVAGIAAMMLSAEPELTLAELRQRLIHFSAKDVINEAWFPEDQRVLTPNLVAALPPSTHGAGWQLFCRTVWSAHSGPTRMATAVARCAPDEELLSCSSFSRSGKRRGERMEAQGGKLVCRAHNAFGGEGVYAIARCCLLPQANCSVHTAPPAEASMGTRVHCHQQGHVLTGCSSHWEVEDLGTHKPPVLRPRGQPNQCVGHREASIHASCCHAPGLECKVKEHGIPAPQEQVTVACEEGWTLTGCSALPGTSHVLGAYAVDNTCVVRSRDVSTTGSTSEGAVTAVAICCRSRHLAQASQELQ

Row | Substance | Binding - Response Unit(RU) (recombinant human PCSK9; peptide 50 μM) | Binding - Response Unit(RU) (recombinant human PCSK9; peptide 100 μM) | antibody titers against human PCSK9 as compared to Seq.ID.No.1 (PCSK9) | LDLR-PCSK9 interaction inhibition compared with Seq. ID No.1 (LDLR-PCSK9 interaction) | antibody response (SPR) as compared to Seq.ID.No. 1 (human PCSK9; week 5, in words) | antibody response (SPR) as compared to Seq.ID.No. 1 (human PCSK9; week-57, in words)
1 | 7 (SIPWN[Nle]ERITPC) [compound 7] | 6.65 | 16.00 |  |  |  | 
2 | 15 (S[NMeI]IPWNLERITPC) [compound 15] | 11.45 | 29.85 |  |  |  | 
3 | 19 (SIP[(S)‑2‑amino‑3‑(2′-ethyl-4′-methoxy-(1,1′-biphenyl)-4-yl)propanoic acid]NLERITPC) [compound 19] | 35.15 | 85.90 |  |  |  | 
4 | 6 (SIPWNLE[hArg]ITPC) [compound 6] | 6.55 | 17.50 |  |  |  | 
5 | 4 (SIPWNLER[Nle]TPC) [compound 4] | 13.05 | 30.00 |  |  |  | 
6 | 1 (SIPWNLERITPC; PCSK9) [compound 1] | 7.4 |  |  |  |  | 
7 | 18 (SIP[2‑aminophenyl pentanoic acid]NLERITPC) [compound 18] | 10.20 | 17.85 |  |  |  | 
8 | SI-Hyp-WNLERITPC (SI[Hyp]WNLERITPC) [Seq. ID. No. 8] |  |  | higher | significantly higher | significantly higher antibody response | 
9 | 14 ([Aib]IPWNLERITPC) [compound 14] | 7.10 | 15.00 |  |  |  | 
10 | SIPWN-Nle-ERITPC (SIPWN[Nle]ERITPC) [Seq. ID. No. 7] |  |  | higher | significantly higher |  | 
11 | 5 (SIPWNLER[Aib]TPC) [compound 5] | 2.30 | 7.10 |  |  |  | 
12 | SIPWNLE-Cit-ITPC (SIPWNLE[Cit]ITPC) [Seq. ID. No. 12] |  |  | higher | significantly higher | significantly higher antibody response | significantly higher antibody response
13 | 13 (SIPWNLERI[Aib]PC) [compound 13] | 9.75 | 37.35 |  |  |  | 
14 | 12 (SIPWNLE[Cit]ITPC) [compound 12] | 3.10 | 6.70 |  |  |  | 
15 | 10 (SIPWN[Aib]ERITPC) [compound 10] | 3.00 | 7.50 |  |  |  | 
16 | 8 (SI[Hyp]WNLERITPC) [compound 8] | 5.70 | 13.25 |  |  |  | 
